Test results from IntAct's records for PubMed 25910212.

B1: Progranulin (Homo sapiens), P28799 (parent)
chain: MWTLVSWVALTAGLVAGTRCPDGQFCPVACCLDPGGASYSCCRPLLDKWPTTLSRHLGGPCQVDAHCSAGHSCIFTVSGTSSCCPFPEAVACGDGHHCCPRGFHCSADGRSCFQRSGNNSVGAIQCPDSQFECPDFSTCCVMVDGSWGCCPMPQASCCEDRVHCCPHGAFCDLVHTRCITPTGTHPLAKKLPAQRTNRAVALSSSVMCPDARSRCPDGSTCCELPSGKYGCCPMPNATCCSDHLHCCPQDTVCDLIQSKCLSKENATTDLLTKLPAHTVGDVKCDMEVSCPDGYTCCRLQSGAWGCCPFTQAVCCEDHIHCCPAGFTCDTQKGTCEQGPHQVPWMEKAPAHLSLPDPQALKRDVPCDNVSSCPSSDTCCQLTSGEWGCCPIPEAVCCSDHQHCCPQGYTCVAEGQCQRGSEIVAGLEKMPARRASLSHPRDIGCDQHTSCPVGQTCCPSLGGSWACCQLPHAVCCEDRQHCCPAGYTCNVKARSCEKEVVSAQPATFLARSPHVGVKDVECGEGHFCHDNQTCCRDNRQGWACCPYRQGVCCADRRHCCPAGFRCAARGTKCLRREAPRWDAPLRDPALRQLL
partner: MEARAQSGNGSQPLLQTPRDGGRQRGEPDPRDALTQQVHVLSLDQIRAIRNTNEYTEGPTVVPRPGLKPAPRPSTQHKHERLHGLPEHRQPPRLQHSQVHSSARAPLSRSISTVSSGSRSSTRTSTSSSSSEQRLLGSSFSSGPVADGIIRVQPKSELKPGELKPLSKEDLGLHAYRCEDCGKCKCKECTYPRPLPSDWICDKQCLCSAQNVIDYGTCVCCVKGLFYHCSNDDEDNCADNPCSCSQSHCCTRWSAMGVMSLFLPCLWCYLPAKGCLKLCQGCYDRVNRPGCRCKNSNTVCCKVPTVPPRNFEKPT
B2: SWI/SNF-related matrix-associated actin-dependent regulator of chromatin subfamily A member 2 (Homo sapiens), P51531-1 (parent)
chain: MSTPTDPGAMPHPGPSPGPGPSPGPILGPSPGPGPSPGSVHSMMGPSPGPPSVSHPMPTMGSTDFPQEGMHQMHKPIDGIHDKGIVEDIHCGSMKGTGMRPPHPGMGPPQSPMDQHSQGYMSPHPSPLGAPEHVSSPMSGGGPTPPQMPPSQPGALIPGDPQAMSQPNRGPSPFSPVQLHQLRAQILAYKMLARGQPLPETLQLAVQGKRTLPGLQQQQQQQQQQQQQQQQQQQQQQQPQQQPPQPQTQQQQQPALVNYNRPSGPGPELSGPSTPQKLPVPAPGGRPSPAPPAAAQPPAAAVPGPSVPQPAPGQPSPVLQLQQKQSRISPIQKPQGLDPVEILQEREYRLQARIAHRIQELENLPGSLPPDLRTKATVELKALRLLNFQRQLRQEVVACMRRDTTLETALNSKAYKRSKRQTLREARMTEKLEKQQKIEQERKRRQKHQEYLNSILQHAKDFKEYHRSVAGKIQKLSKAVATWHANTEREQKKETERIEKERMRRLMAEDEEGYRKLIDQKKDRRLAYLLQQTDEYVANLTNLVWEHKQAQAAKEKKKRRRRKKKAEENAEGGESALGPDGEPIDESSQMSDLPVKVTHTETGKVLFGPEAPKASQLDAWLEMNPGYEVAPRSDSEESDSDYEEEDEEEESSRQETEEKILLDPNSEEVSEKDAKQIIETAKQDVDDEYSMQYSARGSQSYYTVAHAISERVEKQSALLINGTLKHYQLQGLEWMVSLYNNNLNGILADEMGLGKTIQTIALITYLMEHKRLNGPYLIIVPLSTLSNWTYEFDKWAPSVVKISYKGTPAMRRSLVPQLRSGKFNVLLTTYEYIIKDKHILAKIRWKYMIVDEGHRMKNHHCKLTQVLNTHYVAPRRILLTGTPLQNKLPELWALLNFLLPTIFKSCSTFEQWFNAPFAMTGERVDLNEEETILIIRRLHKVLRPFLLRRLKKEVESQLPEKVEYVIKCDMSALQKILYRHMQAKGILLTDGSEKDKKGKGGAKTLMNTIMQLRKICNHPYMFQHIEESFAEHLGYSNGVINGAELYRASGKFELLDRILPKLRATNHRVLLFCQMTSLMTIMEDYFAFRNFLYLRLDGTTKSEDRAALLKKFNEPGSQYFIFLLSTRAGGLGLNLQAADTVVIFDSDWNPHQDLQAQDRAHRIGQQNEVRVLRLCTVNSVEEKILAAAKYKLNVDQKVIQAGMFDQKSSSHERRAFLQAILEHEEENEEEDEVPDDETLNQMIARREEEFDLFMRMDMDRRREDARNPKRKPRLMEEDELPSWIIKDDAEVERLTCEEEEEKIFGRGSRQRRDVDYSDALTEKQWLRAIEDGNLEEMEEEVRLKKRKRRRNVDKDPAKEDVEKAKKRRGRPPAEKLSPNPPKLTKQMNAIIDTVINYKDRCNVEKVPSNSQLEIEGNSSGRQLSEVFIQLPSRKELPEYYELIRKPVDFKKIKERIRNHKYRSLGDLEKDVMLLCHNAQTFNLEGSQIYEDSIVLQSVFKSARQKIAKEEESEDESNEEEEEEDEEESESEAKSVKVKIKLNKKDDKGRDKGKGKKRPNRGKAKPVVSDFDSDEEQDEREQSEGSGTDDE
partner: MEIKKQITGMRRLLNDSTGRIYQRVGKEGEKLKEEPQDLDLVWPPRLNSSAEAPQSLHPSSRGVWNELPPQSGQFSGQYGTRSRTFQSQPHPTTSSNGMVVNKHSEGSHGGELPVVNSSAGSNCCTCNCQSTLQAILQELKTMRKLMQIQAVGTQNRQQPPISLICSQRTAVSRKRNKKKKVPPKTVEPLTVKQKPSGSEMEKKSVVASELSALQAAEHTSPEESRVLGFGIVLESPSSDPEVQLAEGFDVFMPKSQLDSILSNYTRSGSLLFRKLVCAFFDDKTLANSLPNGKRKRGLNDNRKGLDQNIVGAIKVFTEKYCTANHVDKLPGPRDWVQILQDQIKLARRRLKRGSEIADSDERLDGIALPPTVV
B3: PiggyBac transposable element-derived protein 1 (Homo sapiens), Q96JS3 (parent)
chain: MYEALPGPAPENEDGLVKVKEEDPTWEQVCNSQEGSSHTQEICRLRFRHFCYQEAHGPQEALAQLRELCHQWLRPEMHTKEQIMELLVLEQFLTILPKELQPCVKTYPLESGEEAVTVLENLETGSGDTGQQASVYIQGQDMHPMVAEYQGVSLECQSLQLLPGITTLKCEPPQRPQGNPQEVSGPVPHGSAHLQEKNPRDKAVVPVFNPVRSQTLVKTEEETAQAVAAEKWSHLSLTRRNLCGNSAQETVMSLSPMTEEIVTKDRLFKAKQETSEEMEQSGEASGKPNRECAPQIPCSTPIATERTVAHLNTLKDRHPGDLWARMHISSLEYAAGDITRKGRKKDKARVSELLQGLSFSGDSDVEKDNEPEIQPAQKKLKVSCFPEKSWTKRDIKPNFPSWSALDSGLLNLKSEKLNPVELFELFFDDETFNLIVNETNNYASQKNVSLEVTVQEMRCVFGVLLLSGFMRHPRREMYWEVSDTDQNLVRDAIRRDRFELIFSNLHFADNGHLDQKDKFTKLRPLIKQMNKNFLLYAPLEEYYCFDKSMCECFDSDQFLNGKPIRIGYKIWCGTTTQGYLVWFEPYQEESTMKVDEDPDLGLGGNLVMNFADVLLERGQYPYHLCFDSFFTSVKLLSALKKKGVRATGTIRENRTEKCPLMNVEHMKKMKRGYFDFRIEENNEIILCRWYGDGIISLCSNAVGIEPVNEVSCCDADNEEIPQISQPSIVKVYDECKEGVAKMDQIISKYRVRIRSKKWYSILVSYMIDVAMNNAWQLHRACNPGASLDPLDFRRFVAHFYLEHNAHLSD
partner: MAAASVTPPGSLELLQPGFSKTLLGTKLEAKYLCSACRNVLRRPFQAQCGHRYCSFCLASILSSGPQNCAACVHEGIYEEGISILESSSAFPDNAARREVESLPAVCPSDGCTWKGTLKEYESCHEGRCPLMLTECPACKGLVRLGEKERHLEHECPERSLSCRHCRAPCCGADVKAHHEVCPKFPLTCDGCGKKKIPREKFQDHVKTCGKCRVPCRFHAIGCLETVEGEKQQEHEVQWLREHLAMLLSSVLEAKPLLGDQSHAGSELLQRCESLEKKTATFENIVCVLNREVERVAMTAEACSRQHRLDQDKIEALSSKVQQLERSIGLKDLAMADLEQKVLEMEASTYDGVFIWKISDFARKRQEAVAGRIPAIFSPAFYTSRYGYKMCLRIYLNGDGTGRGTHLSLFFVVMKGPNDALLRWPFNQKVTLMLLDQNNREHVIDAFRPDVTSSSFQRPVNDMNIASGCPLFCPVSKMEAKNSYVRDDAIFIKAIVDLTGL
B4: Myelin proteolipid protein (Homo sapiens), P60201-2 (parent)
chain: MGLLECCARCLVGAPFASLVATGLCFFGVALFCGCGHEALTGTEKLIETYFSKNYQDYEYLINVIHAFQYVIYGTASFFFLYGALLLAEGFYTTGAVRQIFGDYKTTICGKGLSATFVGITYALTVVWLLVFACSAVPVYIYFNTWTTCQSIAFPSKTSASIGSLCADARMYGVLPWNAFPGKVCGSNLLSICKTAEFQMTFHLFIAAFVGAAATLVSLLTFMIAATYNFAVLKLMGRGTKF
partner: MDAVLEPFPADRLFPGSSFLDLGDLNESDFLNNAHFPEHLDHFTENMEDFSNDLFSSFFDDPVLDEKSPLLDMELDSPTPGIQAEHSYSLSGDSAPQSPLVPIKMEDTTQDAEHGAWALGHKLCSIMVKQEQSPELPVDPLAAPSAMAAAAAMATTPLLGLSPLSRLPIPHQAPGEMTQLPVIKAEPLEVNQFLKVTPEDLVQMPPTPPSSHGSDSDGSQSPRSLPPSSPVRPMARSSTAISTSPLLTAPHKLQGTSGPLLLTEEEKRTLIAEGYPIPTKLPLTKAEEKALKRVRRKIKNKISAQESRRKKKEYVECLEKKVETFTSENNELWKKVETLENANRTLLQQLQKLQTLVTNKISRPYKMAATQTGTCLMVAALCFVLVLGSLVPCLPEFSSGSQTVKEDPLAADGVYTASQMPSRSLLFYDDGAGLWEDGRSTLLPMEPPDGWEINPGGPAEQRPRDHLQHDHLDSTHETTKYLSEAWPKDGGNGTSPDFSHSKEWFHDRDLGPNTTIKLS

Variants of: B1
Settings: with spy2_human SPRY2, O43597

Row | effect of a mutation on the interaction | Variant
1 | with no effect | P248L

Variants of: B2
Settings: with BEND7, Q8N7W2-2

Row | effect of a mutation on the interaction | Variant
2 | with no effect | D1546E

Variants of: B2
Settings: with BEND7, Q8N7W2-2
Remark: another data set of the same source

Row | effect of a mutation on the interaction | Variant
3 | with no effect | D1546E

Variants of: B3
Settings: with traf2_human TRAF2, Q12933

Row | Variant | effect of a mutation on the interaction
4 | Q248E | with no effect
5 | G244E | with no effect

Other lines, results leading:

Row | effect of a mutation on the interaction | Variant
6 | with no effect | H806D
7 | with no effect | I678V
8 | with no effect | P256L

Variants of: B4
Settings: with cr3l1_human CREB3L1, Q96BA8

Row | effect of a mutation on the interaction | Variant
9 | disrupting interaction strength | W128L
10 | disrupting interaction strength | L87P
